T1: GAP-p21 interaction (Ha-ras p21-GTP and GAP) (Homo sapiens, UniProt P20936)
T1 construct: GST (glutathione S-transferase) (N); made in house; host or cells: E. coli (crude cytosol for GAP)
T1 sequence (P20936 1-1047): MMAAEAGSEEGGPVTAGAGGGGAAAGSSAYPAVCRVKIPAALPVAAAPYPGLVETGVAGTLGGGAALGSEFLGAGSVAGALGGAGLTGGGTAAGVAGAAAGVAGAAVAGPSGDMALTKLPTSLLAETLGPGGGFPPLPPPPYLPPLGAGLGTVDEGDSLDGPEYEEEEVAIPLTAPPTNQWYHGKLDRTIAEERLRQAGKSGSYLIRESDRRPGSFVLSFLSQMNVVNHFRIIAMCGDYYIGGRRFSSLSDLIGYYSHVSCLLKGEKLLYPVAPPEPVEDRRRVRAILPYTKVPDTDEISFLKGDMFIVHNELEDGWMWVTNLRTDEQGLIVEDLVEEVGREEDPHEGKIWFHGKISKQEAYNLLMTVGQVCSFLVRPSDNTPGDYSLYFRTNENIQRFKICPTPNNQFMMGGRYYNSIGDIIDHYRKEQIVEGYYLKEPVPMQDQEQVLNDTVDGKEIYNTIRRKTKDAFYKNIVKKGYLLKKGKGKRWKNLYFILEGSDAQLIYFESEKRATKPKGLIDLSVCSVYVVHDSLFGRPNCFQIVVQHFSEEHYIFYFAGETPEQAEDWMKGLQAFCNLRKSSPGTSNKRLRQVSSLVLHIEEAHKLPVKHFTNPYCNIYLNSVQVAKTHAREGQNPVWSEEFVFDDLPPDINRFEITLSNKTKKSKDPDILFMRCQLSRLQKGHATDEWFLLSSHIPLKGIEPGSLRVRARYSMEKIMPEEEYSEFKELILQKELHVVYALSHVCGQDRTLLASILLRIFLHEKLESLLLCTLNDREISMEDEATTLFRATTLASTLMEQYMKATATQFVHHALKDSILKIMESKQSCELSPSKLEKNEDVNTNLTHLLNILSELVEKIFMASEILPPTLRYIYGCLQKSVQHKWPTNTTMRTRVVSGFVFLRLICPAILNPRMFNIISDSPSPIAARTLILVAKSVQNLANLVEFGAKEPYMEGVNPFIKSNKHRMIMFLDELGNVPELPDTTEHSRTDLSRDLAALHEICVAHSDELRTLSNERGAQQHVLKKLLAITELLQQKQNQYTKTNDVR


Assays:
[1] = tested on: maturation of Xenopus eggs induced by p21 ras Lys12; experiment: Maturation of Xenopus eggs (oocytes) induced by ras, % GVBD; type: cell-based, Xenopus laevis; settings: microinjection into oocyte cytoplasm together with ras p21 protein; GVBD after 18 hours
Experimental: Xenopus laevis frogs were obtained from CNRS (Montpellier, France). The frogs are anaesthetized in ice-water and fragments of the ovaries are removed surgically and transferred to a modified Barth medium (Hirai et al., Dev. Biol. 100 (1984) 214). The stage VI oocytes are recovered by agitating the oocyte aggregates for 2 hours at ambient temperature in the presence of 2 mg/ml of collagenase (Sigma). For analysis of the maturation induced by ras, 40 nl of the protein in modified Barth medium are introduced into the cytoplasm of the oocytes by microinjection, either alone or in the presence of various concentrations of anti-GAP antibodies. For analysis of the maturation induced by hormones, the oocytes are incubated in the presence of insulin (10 μg/ml) and zinc chloride (10 μM) (bovine pancreatic insulin, Sigma) or progesterone (1 μM). The oocytes are kept at 20° C. in modified Barth medium, and the […] germinal vesicle breakdown (GVBD) is determined after incubation for 18 hours by dissection of the oocytes, which have been fixed beforehand in the presence of 5% of trichloroacetic acid. The results are expressed by the % GVBD on groups of oocytes.
E.3.1. The biological activity of the peptides according to the invention was studied by measuring their effect on the maturation of Xenopus eggs induced by p21 ras Lys12, by insulin or by progesterone.
The protocol used is the same as that described in Example E.1.1. above. The activity is measured by microinjection into the cytoplasm of the oocytes of 40 nl of the ras p21 protein in modified Barth medium, either alone or in the presence of various peptides according to the invention in varying concentrations. The results are expressed by the % of GVBD over the groups of oocytes. The results are shown on FIG. 3.

[2] = molecular target: T1, GAP-p21 interaction (Ha-ras p21-GTP and GAP); experiment: GAP-stimulated GTPase reaction of Ha-ras p21-GTP (GAP-p21 interaction); type: biochemical
Experimental: E.1.2. Absence of an effect of the Ac200 antibody on the GAP-p21 interaction The interaction between GAP and the complex p21-GTP is determined in accordance with the following protocol. The normal protein Ha-ras p21 (Rey et al., Mol. Cell. Biol. 9 (1989) 3904) is equilibrated with an excess of (γ-^32 P) GTP (3000 Ci/mmol, Dupont, NEN Research Products, Boston, Mass.) in a buffer of Tris-HCl 20 mM (pH 7.5), 100 mM (NH4)2 SO4, 10 mM dithiothreitol, 1 mM MgCl2 and 50 mg/ml of bovine serum albumin for 30 minutes at 30° C. The incubation is stopped by applying the cooled solution to a PD10 column (Pharmacia) equilibrated by a buffer of Tris-HCl 20 mM (pH 7.5), 10 mM dithiothreitol, 10 mM MgCl2 and 1 mM phenylmethylsulphonyl fluoride, to eliminate the free nucleotides. The GTPase reaction is a variant of that described by Cassel and Selinger (Biochim. Biophys. Acta 452 (1976) 538). The reaction is started by addition of 10 μl (15 μg) of cytosol obtained by sonic treatment of strains of E. coli which express GAP (cf. Example E.2.1. below for the production of GAP) to 1 pmol of Ha-ras p21-(g^-32 P) GTP in the buffer Tris-HCl 20 mM (pH 7.5), NaCl 100 mM, dithiothreitol 10 mM, MgCl2 5 mM, GTP 100 μM and BSA 50 μg/ml, to obtain a final volume of 50 μl. […] After centrifugation at 1800 g, the radioactivity is measured in samples of 200 μl of the supernatant.

[3] = tested on: NIH 3T3 cells cotransfected with oncogenic Ha-ras Val12; experiment: Formation of foci of transformed cells; type: cell-based; settings: foci formation test, result in words
Experimental: The activity of P9 was then evaluated in a test for formation of foci of transformed cells. The cancerous cells in fact have the property of forming transformation foci, and in particular fibroblasts NIH 3T3 expressing an oncogenic ras. The cells NIH 3T3 were cultured in DMEM medium (Dulbecco's modified Eagle medium) comprising 10% of foetal calf serum at 37° C. in a humid environment containing 5% of CO2. The plasmids pSV2-GAP and pSV2-P9 were constructed by inserting the nucleotide sequences coding for GAP and for P9 (SEQ ID No. 4) into the vector SV2. The cells NIH 3T3 were cotransfected with an oncogenic ras Ha-ras Va112, the plasmide indicated in the table, and a 10-fold excess of the gene having resistance to neomycin by the technique of transfection with cationic lipids (Schweighoffer et al., Science 256 (1992) 825). The same amount of total DNA is transfected for each dish. 24 hours after transfection, the transfected cells originating from each Petri dish (100 mm) are divided in a ratio of 1 to 10 and cultured in the same medium but in the presence of G418 (Gibco/BRL) in an amount of 0.4 mg/ml of medium. The number of transformation foci obtained per μg of transfected DNA is compatibilized after culture for 14 days. They represent the mean of four independent tests.

Relative GAP activity ([2]; None = 100, GTPase reaction 3 minutes at 30° C., 1 pmol Ha-ras p21-GTP, E. coli cytosol expressing GAP) | Molecule | Inhibition of the transformation activity of the ras protein (maturation of Xenopus eggs, % GVBD) [1] | Effect on the GAP-p21 interaction ([2]; same GTPase test, result in words) | Reduction of the transforming power of an oncogenic ras gene [3]
– | [768-860] PLCγ: fragment of identical length prepared by the same techniques from type γ human phospholipase C (protein, UniProt P19174 768-860, looked up, fragment) EPDYGALYEGRNPGFYVEANPMPTFKCAVKALFDYKAQREDELTFIKSAIIQNVEKQEGGWWRGDYGGKKQLWFPSNYVEEMVNPVALEPERE | does not have the activity of the peptide according to the invention | – | –
100 | [275-351] GAP: fragment of the protein GAP holding the effector region, about residues 275 to 350; peptide SEQ ID No. 2 (protein) APPEPVEDRRRVRAILPYTKVPDTDEISFLKGDMFIVHNELEDGWMWVTNLRTDEQGLIVEDLVEEVGREEDPHEGKI | capable of inhibiting the transformation activity of the ras protein | does not modify the functional interaction of GAP-p21 | –
– | P9: Peptide SEQ ID No. 4, purified as GST fusion protein and separated from GST by thrombin cleavage (protein) GGGFPPLPPPPYLPPLGAGLGTVDEGDSLDGPEYEEEEVAIPLTAPPTNQWYHGKLDRTIAEERLRQAGKSGSYLIRESDRRPGSFVLSFLSQMNVVNHFRIIAMCGDYYIGGRRFSSLSDLIGYYSHVSCLLKGEKLLYPVAPPEPVEDRRRVRAILPYTKVPDTDEISFLKGDMFIVHNELEDGWMWVTNLRTDEQGLIVEDLVEEVGREEDPHEGKIWFHGKISKQEAYNLLMTVGQVCSFLVRPSDNTPGDYSLYFRTNENIQRFKICPTPNNQFMMGGRYYNSIGDIIDHYRKEQIVEGYYLKEPVPMQDQEQVLNDTVDGKEIYNTIRRKTKDAFYKNIVKKGYLLKKGKGKRWKNLYFILEGSDAQLIYFESEKRATKPKGLIDLSVCSVYVVHDSLFGRPNCFQIVVQHFSEEHYIFYFAGETPEQAEDWMKGLQAFCNLRKSSPGTSNKRLRQVSSLVLHIEEAHKLPVKHFTNPYCNIYLNSVQVAKTHAREGQNPVWSEEFVFDD | completely blocks maturation of ovocytes | – | capable of very greatly reducing the transforming power of an oncogenic ras gene
